Experimental findings from the supplement of paper PMC9170038 are described below.

In this data set the test system is MS2 coat protein. Kind of data set: apparent KD of MS2 coat protein; designed switch direction (-1 OFF switch, 1 ON switch): -1; higher = weaker reporter binding. In short, it runs like this:
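The reported apparent KD is a per-design median over clusters, from curve fits of normalised cluster fluorescence. Protein titrations used SNAP-549-labelled MS2 coat protein, doubled from 0.7 or 1.5 nM to 3 µM, in Tris-HCl pH 7.5 buffer with KCl, MgCl2, BSA, DTT, tRNA and Tween-20, with no input, 200 uM small-molecule ligand, or an oligonucleotide input. The RNA switches were transcribed on Illumina chips by stalled E. coli RNA polymerase.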

[1] abbreviates: input ligand: microRNA oligo, concentration not stated.
The mark [2] stands for this setting: Eterna round: R95, input ligand: microRNA oligo, concentration not stated.
[3] abbreviates: Eterna round: R95, input ligand: FMN 200 uM.
Where [4] appears, read: Eterna round: R95, input ligand: none.

Take “UUUGUUUUGCAAGGAUAUGUUUAAUUUUAGUUUCCUUACACAUGAGGAUCACCCAUGUUAUACUUACAGAAGGUGCGUAAUUUG [Excl-NG2-LRO03] (Eterna round: R96, puzzle: Exclusion NG 2)”: under setting [1], the “apparent KD of MS2 coat protein” value was 122 nM.
For “CAAAAGGAAGGAUAUACAUGUUAAUUAUCCGAAGAUGUCGUACAUGAGGAUCACCCAUGUAGAAGGUCCAAAAC [Tiesbiused] (puzzle: Exclusion 2)”, under setting [2], the “apparent KD of MS2 coat protein” value stood at 27.1 nM.
For the sequence “UUUGAAUAGGUAGGAUAUACAUACAUUCCUACAUUACUAACAUGAGGAUCACCCAUGUAUACAUUGUAGAAGGACCAGAUUGAU [JR_ExcNG2_Sub039] (Eterna round: R96, puzzle: Exclusion NG 2)”, the “apparent KD of MS2 coat protein” value under setting [1] worked out at 18.8 nM.
For the sequence “UUAAAUCAUGUAGGAUAUGCGUGGCGAAGCUAUGCAGAAGGACAUGAGGAUCACCCAUGUGCUUGCGUCCGCGUACGGAUGCUA [JL ENG1 1.22] (Eterna round: R96, puzzle: Exclusion NG 1)”, the “apparent KD of MS2 coat protein” value reads like this: (input ligand: FMN 200 uM) 195 nM; under setting [1], 94 nM; (input ligand: none) 104 nM.
“AAGUACCGGUGAGGAUAUUUUUAAUAGAACUUUAUGAUAUACAUGAGGAUCACCCAUGUUACUUUAAAGAAGGCAUCGGAUUAA [Mat - Exclusion NG 2 - Mod of JL - D86] (Eterna round: R96, puzzle: Exclusion NG 2)”: the “apparent KD of MS2 coat protein” value under setting [1] stood at 12.5 nM.
“GUGUGCAGAGGAUAUACAGAGGAAAAGAAGAAAGAAGAGGGACAUGAGGAUCACCCAUGUAGAAGGCUGAGUGU [Excluse me!! 24 - Jieux - Exclusion 2] (puzzle: Exclusion 2)”: the “apparent KD of MS2 coat protein” value under setting [2] came out at 30.4 nM.
As to “UUAAUUAAUUAUAUAAGAUCACAUGAGGAUCACCCAUGUAUAUAGGAUAUCAGCUCGUGUAGAGCUGAGAAGGAUAUACAAUAU [ExNG3/3-B3] (Eterna round: R96, puzzle: Exclusion NG 3)”, the “apparent KD of MS2 coat protein” value (input ligand: FMN 200 uM) was 241 nM, the “apparent KD of MS2 coat protein” value under setting [1] was 210 nM and the “apparent KD of MS2 coat protein” value (input ligand: none) came to 175 nM.
For “CAAUAUUAUCGAGGAUAUCCUAUUGUAUUUCUGGGAGAAGGCGGACUCAACAUGAGGAUCACCCAUGUAAGACGGGUACUAGAU [Ex NG1 #20] (Eterna round: R96, puzzle: Exclusion NG 1)” the same measures were 119 nM, 81 nM and 98.5 nM.
Take “CCGGAACAUGAGGAUCACCCAUGUCAGGAUAUGAAUAAAUCGUCGAAAGACGAUAAUCUCAGAAGGGACACCGG [Eli 4.28] (Eterna round: R97, puzzle: Exclusion 1)”: the “apparent KD of MS2 coat protein” value by setting is: (input ligand: FMN 200 uM) 22.7 nM; (input ligand: none) 19.6 nM.
Consider “UUUAAAACAUAGGAUAUCGAAAAUAUCAUUUAACGAGAAGGAUGAACAUGAGGAUCACCCAUGUGGUAUCAUGG [Mat - Exclusion 6 - JL Mod - D16] (puzzle: Exclusion 6)”, for which the “apparent KD of MS2 coat protein” value by setting is: under setting [3], 320 nM; under setting [2], 580 nM; under setting [4], 313 nM.
For the sequence “AGCUGUGGCCGAGGAUAUCCACAUGAGGAUCACCCAUGUGAAUAGGGAAUUAACCCAUAACCGUGGGAGAAGGCGGUCUCAGCA [Eli eng2 - 049] (Eterna round: R96, puzzle: Exclusion NG 2)”, the “apparent KD of MS2 coat protein” value is, setting by setting: (input ligand: FMN 200 uM) 55.1 nM; under setting [1], 48.6 nM; (input ligand: none) 82.1 nM.
Taken in the same sequence, the figures for “UUAAUUAAUUGACUGCAAGAUCAACAUGAGGAUCACCCAUGUGAGGAUAUCAGCUCGUGUAGAGCUGAGAAGGCACAAGCAGUC [ExNG3/16-A3] (Eterna round: R96, puzzle: Exclusion NG 3)” were 73.6 nM, 13.4 nM and 21.8 nM.
In the case of “AUACAGGAAGGAUAUACAUGAGGAUCACCCAUGUAGGAAAACCUACCAAAAGACCCAAGUAGAAGGUCCGAUAC [jl-ex3-4.74 ViennaUCT mod] (Eterna round: R97, puzzle: Exclusion 3)”, the “apparent KD of MS2 coat protein” value is 21.8 nM (input ligand: FMN 200 uM) and 19.4 nM (input ligand: none).
“UACUAAAAGGAGGAUAUCGUAUCGGAGACGAUACGAGAAGGCUUAACAUGAGGAUCACCCAUGUUCUUCAAUAU [Mat - Exclusion 6 - Eli Mod - D96] (puzzle: Exclusion 6)”: the “apparent KD of MS2 coat protein” value under setting [2] stood at 14.8 nM.
In the case of “UACCCGUGAGGAUAUAGAGUCCUACACAUGAGGAUCACCCAUGUCAGCCUUAUCGUGGAUCUAGAAGGCAUAAACG [Eternabot (L1) Solution 88] (Eterna round: R97, puzzle: Exclusion 5)”, the “apparent KD of MS2 coat protein” value by setting is: (input ligand: FMN 200 uM) 103 nM; (input ligand: none) 183 nM.
Turning to “UUUUUAGAUGAAGGAUAUACUUAACAUGAGGAUCACCCAUGUGGUGUUGUGAGUGAGUGAGUUUAGUAGAAGGUCAAGUAUUUU [JMF's solution 45] (Eterna round: R96, puzzle: Exclusion NG 2)”, the “apparent KD of MS2 coat protein” value (input ligand: FMN 200 uM) turned out to be 769 nM, the “apparent KD of MS2 coat protein” value under setting [1] was 377 nM and the “apparent KD of MS2 coat protein” value (input ligand: none) was 404 nM.
As for “AUAAAAGAAGUUAGGAUAUGGAAUCGUGGCAACGACCAGAAGGAACUUGAGGAUCACCCAAGUGAUUCUGAUCG [Atzaace] (Eterna round: R97, puzzle: Brourd's mod of Exclusion 4)”, the “apparent KD of MS2 coat protein” value turned out to be 15.2 nM (input ligand: FMN 200 uM) and 14.1 nM (input ligand: none).
Taken in the same sequence, the figures for “CUGAGCUGAGGAUAUACAUGAGGAUCACCCAUGUUAAGCAGCUAGUGAAGAAGUAGAUGUAGAAGGCAGUUCGG [Mod of JL 21 - Jieux - Exclusion 3] (Eterna round: R97, puzzle: Exclusion 3)” were 75.2 nM and 21 nM.
For “AGAUAUAGAGGAUAUUUGCGGGAACACAUGAGGAUCACCCAUGUCGAAUAGACGCCCUAUAAAGAAGGCUAGACUG [Eternabot (L2) Solution 86] (Eterna round: R97, puzzle: Exclusion 5)” the same measures were 15.7 nM and 32.8 nM.
In the case of “UCGCUGCGAGGAUAUACGUUUGCGCGCUUUCGUUUGCGCGUACAUGAGGAUCACCCAUGUAGAAGGCGCGCCGC [Apr-15 SS2-8] (puzzle: Exclusion 2)”, the “apparent KD of MS2 coat protein” value under setting [2] amounted to 13.2 nM.
Consider “GUAAUUAAUGUAGGAUAUGCAAGGCGAACCUAAGCAGAAGGAACAUGAGGAUCACCCAUGUAUGCGGUCUGCGUACAGAUCGCU [salish99_ExNG1_r4_004] (Eterna round: R96, puzzle: Exclusion NG 1)”, for which the “apparent KD of MS2 coat protein” value was 15.1 nM (input ligand: FMN 200 uM), 13.3 nM under setting [1] and 19.7 nM (input ligand: none).
As for “GAGUGACAUGAGGAUCACCCAUGUGAGGAUAUCCGAUGGACCAAAUUAACAAUAGAAGGGAGAAGGCACAUAAA [Exclusion 1 V7] (puzzle: Exclusion 1)”, the “apparent KD of MS2 coat protein” value under setting [3] came to 162 nM, the “apparent KD of MS2 coat protein” value under setting [2] is 127 nM and the “apparent KD of MS2 coat protein” value under setting [4] stood at 131 nM.
Turning to “GCAGCUAAUCGAGGAUAUCAGCACGUGUAGUGCUGAGAAGGCGACAUGAGGAUCACCCAUGUGAUCAAUUAAUAUUAAUGCUGC [ENG1/11-A3] (Eterna round: R96, puzzle: Exclusion NG 1)”, the “apparent KD of MS2 coat protein” value worked out at 893 nM (input ligand: FMN 200 uM), 308 nM under setting [1] and 414 nM (input ligand: none).
